Experimental data as given in US20250197448A1, “CYCLOPEPTIBODIES AND USES THEREOF” (University of Rochester, priority 2022, published 2025).
Blank lines part the entries; values can stand above or below the substance they belong to. Starred links: 1 amine or outer side, 2 acyl side, 3 side chain; linkers in the order of their positions; H or OH if unused. Positions of bridges follow the written chain, without caps; N, C: chain ends. Non-standard residues stand in square brackets, D forms with d. No end group written: not given here. O2beY = O-(2-bromoethyl)-tyrosine (p-2beF), reacts with Cys to form a thioether, O=C([C@H](Cc1ccc(OCCBr)cc1)N[*:1])[*:2]; pCaaF = p-(2-chloroacetamido)-phenylalanine, O=C(CCl)Nc1ccc(C[C@H](N[*:1])C(=O)[*:2])cc1

Assays:
[1] = serum stability assay in human blood serum; type: in vitro ADME
Description: The proteolytic stability of cyclopeptibodies cCLP003-Tras-Fc and L2-m5-Tras-Fc were assessed by incubating these proteins in human blood serum, followed by measurement of the cyclopeptibody activity using an in vitro binding assay with plate-immobilized PD-L1 or Sh as described in Example 7 and 8, respectively.
Serum stability Assay. The human male serum (Sigma-Aldrich) was clarified by centrifugation at 14 000 rpm for 15 min. 50% serum was prepared in phosphate-buffered saline (pH 7.4), then incubated at 37° C. Cyclopeptiodies were dissolved in 30 μL of 50% serum at a final concentration of 1 μM, incubated at 37° C. Serum samples with diluted cyclopeptibodies were prepared in the same way described above over a time course of 30 h for cCLP003-Tras-Fc-His and 24 h for L2-m5-Tras-Fc-His, followed by incubated at 37° C. Intact cyclopeptibodies in serum were quantified using the binding assay described above. In the assay, immobilized PD-L1 or Shh was incubated with 100 μL of serum samples diluted with PBS (1:10 dilution for cCLP003-Tras-Fc-His, 1:100 dilution for L2-m5-Tras-Fc-His). Intact cyclopeptibody in each sample was detected with HRP-conjugate mouse anti-FLAG polyclonal antibody. The absolute concentration of intact cyclopeptibody in each serum sample was quantified using a calibration curve, which was generated from a binding assay in which immobilized PD-L1 or Shh was incubated with cyclopeptibody in serial dilution (0-100 nM for cCLP003-Tras-Fc-His; 0-10 nM for L2-m5-Tras-Fc-His), followed by detected with HRP-conjugate mouse anti-FLAG polyclonal antibody, absorbance at 450 nm was measured as a function of cyclopeptibody concentration.

[2] = target: T1, integrin αvβ3 on MDA-MB-231 cells (Homo sapiens, UniProt P05106+P06756); test: flow cytometry of MDA-MB-231 cells, integrin receptor labeling; type: cell-based; conditions: for labeling of integrin receptors on MDA-MB-231 cells (in words): FITC anti-IgG1 Fc detection
T1 construct: known to express high levels of integrin αvβ3 on their surface; endogenous in cells; host or cells: MDA-MB-231
T1 sequence (P06756 31-889 limits assumed): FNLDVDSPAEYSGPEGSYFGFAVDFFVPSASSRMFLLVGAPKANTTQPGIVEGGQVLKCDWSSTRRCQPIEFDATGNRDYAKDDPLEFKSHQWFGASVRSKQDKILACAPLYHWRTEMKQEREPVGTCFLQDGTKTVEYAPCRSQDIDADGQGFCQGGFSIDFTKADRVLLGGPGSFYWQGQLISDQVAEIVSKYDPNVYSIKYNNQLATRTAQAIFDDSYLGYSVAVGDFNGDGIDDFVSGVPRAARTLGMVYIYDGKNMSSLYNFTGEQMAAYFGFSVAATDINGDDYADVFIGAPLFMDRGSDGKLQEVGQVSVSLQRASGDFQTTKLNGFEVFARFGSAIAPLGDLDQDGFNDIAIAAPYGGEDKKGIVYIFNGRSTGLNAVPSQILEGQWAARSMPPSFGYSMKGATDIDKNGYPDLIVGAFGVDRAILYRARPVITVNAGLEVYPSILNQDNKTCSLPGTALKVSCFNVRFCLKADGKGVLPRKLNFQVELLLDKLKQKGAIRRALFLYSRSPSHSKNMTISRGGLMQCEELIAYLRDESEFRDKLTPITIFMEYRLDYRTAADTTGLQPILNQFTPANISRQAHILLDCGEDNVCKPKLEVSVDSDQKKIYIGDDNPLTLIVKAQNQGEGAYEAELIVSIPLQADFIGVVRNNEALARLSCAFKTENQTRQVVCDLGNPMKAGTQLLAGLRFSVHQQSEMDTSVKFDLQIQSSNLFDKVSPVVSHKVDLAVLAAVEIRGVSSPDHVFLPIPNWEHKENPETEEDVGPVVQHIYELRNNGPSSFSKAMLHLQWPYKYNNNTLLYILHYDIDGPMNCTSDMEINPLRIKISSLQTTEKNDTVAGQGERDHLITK
T1 sequence (P06756 891-1048 partner limits assumed): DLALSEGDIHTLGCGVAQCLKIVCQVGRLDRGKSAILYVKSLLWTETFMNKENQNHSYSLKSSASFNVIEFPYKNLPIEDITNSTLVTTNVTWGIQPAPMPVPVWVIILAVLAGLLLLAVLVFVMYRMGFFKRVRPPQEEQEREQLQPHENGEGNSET
T1 sequence (P05106 27-788): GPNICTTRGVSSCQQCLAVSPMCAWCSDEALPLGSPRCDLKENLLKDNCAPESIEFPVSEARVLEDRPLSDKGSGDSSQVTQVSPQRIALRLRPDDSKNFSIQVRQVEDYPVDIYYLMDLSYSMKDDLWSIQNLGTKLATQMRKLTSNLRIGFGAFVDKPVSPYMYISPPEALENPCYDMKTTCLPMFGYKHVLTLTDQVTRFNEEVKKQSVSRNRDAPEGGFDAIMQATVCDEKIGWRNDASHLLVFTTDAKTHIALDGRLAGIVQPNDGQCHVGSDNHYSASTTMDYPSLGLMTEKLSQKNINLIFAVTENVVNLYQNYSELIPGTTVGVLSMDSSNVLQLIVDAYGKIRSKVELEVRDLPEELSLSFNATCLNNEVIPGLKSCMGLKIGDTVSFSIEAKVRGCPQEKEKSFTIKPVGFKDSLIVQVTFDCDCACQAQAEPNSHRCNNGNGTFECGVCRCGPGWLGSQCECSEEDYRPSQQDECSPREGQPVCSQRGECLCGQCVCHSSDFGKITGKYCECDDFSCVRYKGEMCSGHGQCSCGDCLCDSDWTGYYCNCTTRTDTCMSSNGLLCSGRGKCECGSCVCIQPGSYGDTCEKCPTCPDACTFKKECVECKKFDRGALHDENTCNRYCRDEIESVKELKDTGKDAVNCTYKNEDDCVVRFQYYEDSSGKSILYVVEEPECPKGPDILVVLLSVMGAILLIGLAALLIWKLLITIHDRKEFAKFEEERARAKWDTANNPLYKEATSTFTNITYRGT
Description: Flow Cytometry Analysis. Cell line MDA-MB-231 was grown in culture to reach confluency. When confluent, media was aspirated, cells were washed once with 1×DPBS (no calcium, no magnesium) (Gibco). Adherent cells were detached from the petri dish with 1 mL of accutase (Gibco) pre-warmed to 37° C., followed by incubated for 5 min at 37° C. Cells were spun down using centrifugation. Supernatant was removed and cells were washed three times with staining buffer (1×PBS with 0.5% BSA). Cells were resuspended in Eppendorf tubes in 100 μL PBS at a concentration of […]. Cyclopeptibodies or Human anti-PD-L1 antibody (1 μg) (R&D Systems, MAB10355) in staining buffer were then added to the tubes with a concentration of 1.5 μM in 200 μL. Eppendorf tubes were then placed on the platform shaker for gently shaking for 1 hour at room temperature. After 1 hour, cells were spun down using centrifugation, then supernatant was removed. After washing three times, cells were resuspended in 200 μL of Fluorescein (FITC) AffiniPure Goat Anti-Human IgG with working concentration of 30 μg/mL (Jackson ImmunoResearch, 109-095-098), incubated in the dark for 30 min at room temperature. Cells were washed as described above, then resuspended in 400 μL staining buffer. Then cells were analyzed on a BD FACS Accuri C6^+ using a filter of 533/30. The cells of interest were gated using Forward and Side scatter (FSC/SSC). 10,000 singlet events were collected for each specimen.
After purification as described in Example 2, these cyclopeptibodies were used to treat breast cancer cells (MDA-MB-231), which are known to express high levels of integrin αvβ3 on their surface. The cyclopeptibody treated cells were then analyzed by flow cytometry using a procedure similar to that described for the PD-L1-targeting cyclopeptibodies in Example 9.

[3] = target: T2, PD-L1 receptor on MDA-MB-231 cells (Homo sapiens, UniProt Q9NZQ7); test: flow cytometry of MDA-MB-231 cells, PD-L1 labeling with FITC anti-human IgG Fc; type: cell-based; conditions: concentration not given at the place
T2 construct: known to express high levels of PD-L1 on their surface; endogenous in cells; host or cells: MDA-MB-231
T2 sequence (Q9NZQ7 19-290): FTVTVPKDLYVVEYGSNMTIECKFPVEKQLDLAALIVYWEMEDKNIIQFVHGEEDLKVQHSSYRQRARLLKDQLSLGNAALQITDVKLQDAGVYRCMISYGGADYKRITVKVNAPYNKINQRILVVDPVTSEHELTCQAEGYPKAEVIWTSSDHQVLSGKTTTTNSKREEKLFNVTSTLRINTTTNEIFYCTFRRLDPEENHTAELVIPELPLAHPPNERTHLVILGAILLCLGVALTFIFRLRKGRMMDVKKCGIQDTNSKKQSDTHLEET
Description: The cells were then incubated with fluorescein-conjugated anti-human IgG Fc antibody and analyzed by flow cytometry. The same experiment was carried out in parallel using commercially available anti-PD-L1 antibody as positive control and various negative controls.
Flow Cytometry Analysis. […] When confluent, media was aspirated, cells were washed once with 1×DPBS (no calcium, no magnesium) (Gibco). Adherent cells were detached from the petri dish with 1 mL of accutase (Gibco) pre-warmed to 37° C., followed by incubated for 5 min at 37° C. Cells were spun down using centrifugation. Supernatant was removed and cells were washed three times with staining buffer (1×PBS with 0.5% BSA). Cells were resuspended in Eppendorf tubes in 100 μL PBS at a concentration of 107cells per mL. […] Eppendorf tubes were then placed on the platform shaker for gently shaking for 1 hour at room temperature. After 1 hour, cells were spun down using centrifugation, then supernatant was removed. […] Cells were washed as described above, then resuspended in 400 μL staining buffer. […] The cells of interest were gated using Forward and Side scatter (FSC/SSC). 10,000 singlet events were collected for each specimen.

Substance: FLAG-(GS)2-TLSWZEAMDMCTSS-(Q)6-(Fc)^1-H6 (DYKDDDDKGSGSTLSW[O2beY]EAMDMCTSSQQQQQQ-{Fc-H6}; thioether 17-23 (inferred)) [L2-m5-Tras-Fc]
half-life in human blood serum, indicated ([1]; 50% serum, 37° C., readout Shh binding assay): 30 to 50 h | loss in activity in human blood serum ([1]; over 24 h, readout Shh binding assay): no loss in activity

labeling of integrin receptors on MDA-MB-231 cells (in words) [2]: label the cells
Substance: FLAG-(GS)2-CRDRGDYZ-(Q)6-IEGR-(Fc)^1-H6 (DYKDDDDKGSGSCRDRGDY[pCaaF]QQQQQQIEGR-{Fc-H6}; thioether 13-20 (inferred)) [RGD5R (pCaaF)-Tras-Fc]
labeling of integrin receptors on MDA-MB-231 cells (in words) ([2]; listed as cRGD5R (pCaaF)-Tras-Fc): selective labeling of the integrin receptors

staining / labeling of PD-L1 receptors on MDA-MB-231 cells (in words) [3]: selective labeling of PD-L1 receptors
Substance: FLAG-(GS)2-WHFSZNWRWLPC-(Q)6-(Fc)^1-H6 (DYKDDDDKGSGSWHFS[pCaaF]NWRWLPCQQQQQQ; thioether 17-24 (inferred); not fully specified (C-terminus)) [cCLP003-Tras-Fc]
half-life in human blood serum ([1]; 50% serum, 37° C., readout PD-L1 binding assay): over 24 hrs.

Substance: FLAG-(GS)2-CRDRGDYZ-(Q)6-IEGR-(Fc)^1-H6 [RGD5R (pCmF)-Tras-Fc]
labeling of integrin receptors on MDA-MB-231 cells (in words) ([2]; listed as cRGD5R (pCmF)-Tras-Fc): selective labeling of the integrin receptors | receptor affinity and labeling efficiency compared to the corresponding cyclic peptides ([2]; MDA-MB-231 cells): superior receptor affinity and labeling efficiency
